Source: paper PMC2954370

Target: HIV-1 Env gp140 of isolate JRFL (HIV-1 isolate JRFL (clade B)) (UniProt Q75760)
Test: ELISA

human soluble CD4 (first two domains of the human CD4) (from UniProt P01730 26-203) (domain or fragment)
EC50: 6 nM
